B1: PLAGL1 (parent)
chain: CKDFLCQFCAQRFGRKDHLTRHTK

Variants of: B1
Assay: protein stability index of a GFP-peptide fusion (GPS, HEK-293T) (PSI 1-6); higher = more stable
Settings: c terminus: a fixed tail appended
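Note: lentivirally expressed fusions sorted by FACS into six bins by GFP to DsRed ratio, PSI derived from sequencing read proportions per bin multiplied by bin number.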

| Variant | protein stability index |
| --- | --- |
| CKDFLCQFCAQIFGRKDHLTRHTK | 2.6 |
| CKDFLCQFCAQLFGRKDHLTRHTK | 1.47 |
| CKDFLCQFCAQPFGRKDHLTRHTK | 1.81 |
| CKDFLCQFCAQGFGRKDHLTRHTK | 2.54 |
| CKDFLCQFCAQKFGRKDHLTRHTK | 3.04 |
| CKDFLCQFCAQYFGRKDHLTRHTK | 2 |
| CKDFLCQFCAQRFGIKDHLTRHTK | 1.91 |
| CKDFLCQFCAQRFGKKDHLTRHTK | 2.52 |
| CKDFLCQFCAQRFGMKDHLTRHTK | 1.73 |
| CKDFLCQFCAQRFGVKDHLTRHTK | 2.3 |
| CKDFLCQFCAQRFGNKDHLTRHTK | 1.83 |
| CKDFLCQFCAQRFGGKDHLTRHTK | 2.36 |
| CKDFLCQFCAQRFGPKDHLTRHTK | 1.66 |
| CKDFLCQFCAQRFGRKDHLTRHCK | 2.17 |
| CKDFLCQFCAQRFGRKDHLTRHKK | 2.44 |
| CKDFLCQFCAQRFGRKDHLTRHHK | 2.02 |
| CKDFLCQFCAQRFGRKDHLTRHFK | 2.23 |
| CKDFLCQFCAQRFGRKDHLTRHEK | 1.68 |
| CKDFLCQFCAQRFGRKDHLTRHDK | 2.81 |
| CKDFLCQFCAQRFGRKDHLTRHPK | 1.76 |
| CKDFLCQFCAQRFGRKDHLTRHSK | 2.38 |
| CKDFLCQFCAQRFGRKDHLTRHVK | 1.87 |
| CKDFLCQFCAQRFGRKDHLTRHGK | 2.15 |
| CKFFLCQFCAQRFGRKDHLTRHTK | 3.19 |

| Variant | protein stability index |
| --- | --- |
| CKNFLCQFCAQRFGRKDHLTRHTK | 1.56 |
| CKSFLCQFCAQRFGRKDHLTRHTK | 1.51 |
| CKWFLCQFCAQRFGRKDHLTRHTK | 1.73 |
| CKLFLCQFCAQRFGRKDHLTRHTK | 1.86 |
| CKPFLCQFCAQRFGRKDHLTRHTK | 1.73 |
| CKDFLCQFCAQRFGRHDHLTRHTK | 2.39 |
| CKDFLCQFCAQRFGRVDHLTRHTK | 2.05 |
| CKDFLCQFCAQRFGRPDHLTRHTK | 2.25 |
| CKDFLCQFCAQRFGRNDHLTRHTK | 1.92 |
| CKDFLCQFCAQRFIRKDHLTRHTK | 2.08 |
| CKDFLCQFCAQRFPRKDHLTRHTK | 2.46 |
| CKDFLCQFCAQRFTRKDHLTRHTK | 2.09 |
| CKDFLCQFCAQRFHRKDHLTRHTK | 2.13 |
| CKDFLCQFCAQRFKRKDHLTRHTK | 2 |
| CKDFLCQFCAQRFFRKDHLTRHTK | 1.79 |
| CKDFLCQFCAQRFERKDHLTRHTK | 2.78 |
| CKDFLCQFCAQRFLRKDHLTRHTK | 1.96 |
| CKDFLCQRCAQRFGRKDHLTRHTK | 3.32 |
| CKDFLCQICAQRFGRKDHLTRHTK | 1.93 |
| CKDFLCQHCAQRFGRKDHLTRHTK | 2.87 |
| CKDFLCQECAQRFGRKDHLTRHTK | 2.62 |
| CKDFLCQLCAQRFGRKDHLTRHTK | 2.89 |
| CKDFLCQGCAQRFGRKDHLTRHTK | 2.32 |
| CKDFLCQACAQRFGRKDHLTRHTK | 2.94 |

| Variant | protein stability index |
| --- | --- |
| CKDFLCQFCAPRFGRKDHLTRHTK | 2.07 |
| CKDFLCQFCACRFGRKDHLTRHTK | 1.85 |
| CKDFLCQFCAGRFGRKDHLTRHTK | 2.44 |
| CKDFLCQFCATRFGRKDHLTRHTK | 1.75 |
| CKDFLCQFCAERFGRKDHLTRHTK | 2.14 |
| CKDFLCQFCALRFGRKDHLTRHTK | 2.29 |
| CKDFLCQFCADRFGRKDHLTRHTK | 1.75 |
| CKDFLCQFCAWRFGRKDHLTRHTK | 1.76 |
| CKDFLCQFCAQRFGRKDHWTRHTK | 1.65 |
| CKDFLCQFCAQRFGRKDHHTRHTK | 2.16 |
| CKDFLCQFCAQRFGRKDHRTRHTK | 2.39 |
| CKDFLCQFCAQRFGRKDHQTRHTK | 2.48 |
| CKDFLCQFCAQRFGRKDHLTRHTN | 1.9 |
| CKDFLCQFCAQRFGRKDHLTRHTP | 2.21 |
| CKDFLCQFCAQRFGRKDHLTRHTC | 2.83 |
| CKDFLCQFCAQRFGRKDHLTRHTG | 1.74 |
| CKDFLCQFCAQRFGRKDHLTRHTI | 2.08 |
| CKDFLCQFCAQRFGRKDHLTRHTS | 2.02 |
| CKDFLCQFCAQRFGRKDHLTRHTA | 2.73 |
| CKDFLCQFCAQRFGRKDHLTRHTH | 2.41 |
| CKDFLCQFCAQRFGRKDTLTRHTK | 2.25 |
| CKDFLCQFCAQRFGRKDLLTRHTK | 1.33 |
| CKDFLCQFCAQRFGRKDILTRHTK | 2.07 |
| CKDFLCQFCAQRFGRKDNLTRHTK | 1.97 |

| Variant | protein stability index |
| --- | --- |
| CKDFLCQFCAQRFGRKDALTRHTK | 2.51 |
| CKDFLCQFCAQRFGRKDKLTRHTK | 2.25 |
| CKDFLCQFCAQRFGRKDVLTRHTK | 2.59 |
| CKDFLCQFCAQRFGRKDQLTRHTK | 1.96 |
| CKDFLCQFCAQRFGRKDCLTRHTK | 2.6 |
| CKDFLEQFCAQRFGRKDHLTRHTK | 2.63 |
| CKDFLPQFCAQRFGRKDHLTRHTK | 2.38 |
| CKDFLLQFCAQRFGRKDHLTRHTK | 1.99 |
| CKDFLRQFCAQRFGRKDHLTRHTK | 1.41 |
| CKDFLWQFCAQRFGRKDHLTRHTK | 1.78 |
| CKDFLKQFCAQRFGRKDHLTRHTK | 1.4 |
| CKDFLAQFCAQRFGRKDHLTRHTK | 2.18 |
| CKDFLYQFCAQRFGRKDHLTRHTK | 2.1 |
| CKDFLCQFCAQRFGRKFHLTRHTK | 2.08 |
| CKDFLCQFCAQRFGRKAHLTRHTK | 2.28 |
| CKDFLCQFCAQRFGRKYHLTRHTK | 1.7 |
| CKDFLCQFCAQRFGRKVHLTRHTK | 1.64 |
| CKDFLCQFCAQRFGRKLHLTRHTK | 2.03 |
| CKDFLCQFCAQRFGRKHHLTRHTK | 1.85 |
| CKDFLCQFCAQRFGRKNHLTRHTK | 2.04 |
| CKDFLCQFCAQRFGRKTHLTRHTK | 2.44 |
| CKDFLCQFCAQRFGRKRHLTRHTK | 2.37 |
| CKDFLCQFCAQRFGRKWHLTRHTK | 1.35 |
| CKDFLCQFCAQRFGRKGHLTRHTK | 1.67 |

| Variant | protein stability index |
| --- | --- |
| CKDFLCQFCAQRFGRKMHLTRHTK | 1.3 |
| CKDFLCQFCAQRFGRKEHLTRHTK | 2.14 |
| CKDFLCQFCAQRFGRKDHLTRTTK | 2.57 |
| CKDFLCQFCAQRFGRKDHLTRETK | 1.8 |
| CKDFLCQFCAQRFGRKDHLTRWTK | 2.52 |
| CKDFLCQFCAQRFGRKDHLTRDTK | 2.09 |
| CKDFLCQFCAQRFGRKDHLTRPTK | 2.3 |
| CKDFLCQFCAQRFGRKDHLTRVTK | 2.81 |
| CPDFLCQFCAQRFGRKDHLTRHTK | 2.52 |
| CNDFLCQFCAQRFGRKDHLTRHTK | 2.02 |
| CTDFLCQFCAQRFGRKDHLTRHTK | 2.09 |
| CMDFLCQFCAQRFGRKDHLTRHTK | 1.46 |
| CGDFLCQFCAQRFGRKDHLTRHTK | 2.43 |
| CLDFLCQFCAQRFGRKDHLTRHTK | 1.85 |
| CHDFLCQFCAQRFGRKDHLTRHTK | 2.46 |
| VKDFLCQFCAQRFGRKDHLTRHTK | 1.67 |
| TKDFLCQFCAQRFGRKDHLTRHTK | 1.76 |
| FKDFLCQFCAQRFGRKDHLTRHTK | 1.64 |
| YKDFLCQFCAQRFGRKDHLTRHTK | 2.44 |
| RKDFLCQFCAQRFGRKDHLTRHTK | 2.04 |
| GKDFLCQFCAQRFGRKDHLTRHTK | 1.93 |
| NKDFLCQFCAQRFGRKDHLTRHTK | 1.72 |
| LKDFLCQFCAQRFGRKDHLTRHTK | 2.25 |
| CKDFLCQFRAQRFGRKDHLTRHTK | 1.45 |

| Variant | protein stability index |
| --- | --- |
| CKDFLCQFEAQRFGRKDHLTRHTK | 2 |
| CKDFLCQFHAQRFGRKDHLTRHTK | 2.11 |
| CKDFLCQFWAQRFGRKDHLTRHTK | 2 |
| CKDFLCQFTAQRFGRKDHLTRHTK | 1.93 |
| CKDFLCQFNAQRFGRKDHLTRHTK | 2.58 |
| CKDPLCQFCAQRFGRKDHLTRHTK | 2.37 |
| CKDALCQFCAQRFGRKDHLTRHTK | 2.05 |
| CKDELCQFCAQRFGRKDHLTRHTK | 2.56 |
| CKDLLCQFCAQRFGRKDHLTRHTK | 1.41 |
| CKDHLCQFCAQRFGRKDHLTRHTK | 1.58 |
| CKDCLCQFCAQRFGRKDHLTRHTK | 1.97 |
| CKDRLCQFCAQRFGRKDHLTRHTK | 2.4 |
| CKDYLCQFCAQRFGRKDHLTRHTK | 1.36 |
| CKDKLCQFCAQRFGRKDHLTRHTK | 2.41 |
| CKDILCQFCAQRFGRKDHLTRHTK | 1.54 |
| CKDFLCQFCNQRFGRKDHLTRHTK | 1.96 |
| CKDFLCQFCRQRFGRKDHLTRHTK | 2.14 |
| CKDFLCQFCQQRFGRKDHLTRHTK | 1.44 |
| CKDFLCQFCHQRFGRKDHLTRHTK | 1.9 |
| CKDFLCQFCFQRFGRKDHLTRHTK | 1.96 |
| CKDFLCQFCIQRFGRKDHLTRHTK | 1.83 |
| CKDFLCQFCGQRFGRKDHLTRHTK | 1.79 |
| CKDFLCQFCCQRFGRKDHLTRHTK | 2.19 |
| CKDFLCQFCLQRFGRKDHLTRHTK | 1.79 |

| Variant | protein stability index |
| --- | --- |
| CKDFLCQFCAQRFGRKDHLERHTK | 2.29 |
| CKDFLCQFCAQRFGRKDHLCRHTK | 3.02 |
| CKDFLCQFCAQRFGRKDHLMRHTK | 2.66 |
| CKDFLCQFCAQRFGRKDHLNRHTK | 2.01 |
| CKDFLCQFCAQRFGRKDHLKRHTK | 2.35 |
| CKDFLCQFCAQRFGRKDHLDRHTK | 1.72 |
| CKDFLCQFCAQRFGRKDHLHRHTK | 1.96 |
| CKDFSCQFCAQRFGRKDHLTRHTK | 2.41 |
| CKDFFCQFCAQRFGRKDHLTRHTK | 2.56 |
| CKDFQCQFCAQRFGRKDHLTRHTK | 2.01 |
| CKDFKCQFCAQRFGRKDHLTRHTK | 2.08 |
| CKDFHCQFCAQRFGRKDHLTRHTK | 1.89 |
| CKDFPCQFCAQRFGRKDHLTRHTK | 2.87 |
| CKDFCCQFCAQRFGRKDHLTRHTK | 1.41 |
| CKDFVCQFCAQRFGRKDHLTRHTK | 1.36 |
| CKDFWCQFCAQRFGRKDHLTRHTK | 1.93 |
| CKDFMCQFCAQRFGRKDHLTRHTK | 1.9 |
| CKDFDCQFCAQRFGRKDHLTRHTK | 2.18 |
| CKDFGCQFCAQRFGRKDHLTRHTK | 2.23 |
| CKDFACQFCAQRFGRKDHLTRHTK | 2.02 |
| CKDFLCQFCAQRHGRKDHLTRHTK | 2.31 |
| CKDFLCQFCAQRNGRKDHLTRHTK | 2.35 |
| CKDFLCQFCAQRRGRKDHLTRHTK | 2.54 |
| CKDFLCQFCAQRAGRKDHLTRHTK | 1.91 |

| Variant | protein stability index |
| --- | --- |
| CKDFLCQFCAQRVGRKDHLTRHTK | 2.03 |
| CKDFLCQFCAQRIGRKDHLTRHTK | 2.02 |
| CKDFLCQFCAQRSGRKDHLTRHTK | 3.21 |
| CKDFLCQFCAQRWGRKDHLTRHTK | 2.33 |
| CKDFLCQFCAQRMGRKDHLTRHTK | 2.88 |
| CKDFLCQFCAQREGRKDHLTRHTK | 2.86 |
| CKDFLCQFCAQRDGRKDHLTRHTK | 2.65 |
| CKDFLCWFCAQRFGRKDHLTRHTK | 2.57 |
| CKDFLCMFCAQRFGRKDHLTRHTK | 2.29 |
| CKDFLCNFCAQRFGRKDHLTRHTK | 1.74 |
| CKDFLCGFCAQRFGRKDHLTRHTK | 2.09 |
| CKDFLCPFCAQRFGRKDHLTRHTK | 2.23 |
| CKDFLCTFCAQRFGRKDHLTRHTK | 2.35 |
| CKDFLCYFCAQRFGRKDHLTRHTK | 2.06 |
| CKDFLCLFCAQRFGRKDHLTRHTK | 1.29 |
| CKDFLCQFCAQRFGRKDHLTQHTK | 2.56 |
| CKDFLCQFCAQRFGRKDHLTTHTK | 1.77 |
| CKDFLCQFCAQRFGRKDHLTHHTK | 1.87 |
| CKDFLCQFCAQRFGRKDHLTDHTK | 2.37 |
| CKDFLCQFCAQRFGRKDHLTEHTK | 2.48 |
